# Target: wild-type Pseudomonas testosteroni ketosteroid isomerase (KSI) (Pseudomonas testosteroni)
# Assay: SEC
substance,measurement,value
wild-type Pseudomonas testosteroni ketosteroid isomerase (KSI) (enzyme),stoichiometry N,2
